Patent publication US20060233785A1, “Immunointeractive molecules and uses thereof” (priority 2001, published 2006)

Test system: rHev b 6-specific serum IgE
Test: Immunoblotting detecting rHev b 6-specific serum IgE (Example 3)
Assay type: binding, human
Settings: sera from patients 1, 4 and 5; prohevein band around 20 kDa
Protocol: FIG. 4 is an image of immunoblotting detecting rHev b 6-specific serum IgE. rHev b 6 was subjected to electrophoresis under reducing conditions on a 16% SDS PAGE minigel and transferred to a nitrocellulose membrane. After blocking with skim milk powder, the membrane was incubated with serum from latex allergic and non-allergic subjects (1:5 dilution). Antibody binding was detected by incubation with rabbit anti-human IgE, swine anti-rabbit immunoglobulins-HRP and 4-chloro-1-naphthol as substrate. M: molecular mass markers; C: Coomassie-stained gel; lane 1: 1A5.4.3 monoclonal antibody; lane 2: P1 serum; lane 3: P4 serum; lane 4: P5 serum; lane 5: non-latex-allergic serum; lane 6: no serum.
Hybridoma supernatants and patient sera were tested for reactivity with LAL, NAL, glove extract, rHev b 6 and hevein by 16% SDS-PAGE and immunoblotting as described previously (Sutherland et al., 2002, supra).

B1: rHev b 6: recombinant Hev b 6 (prohevein) expressed in E. coli from pPROEX-HTa with 6-His tag (protein)
chain: EQCGRQAGGKLCPNNLCCSQWGWCGSTDEYCSPDHNCQSNCKDSGEGVGGGSASNVLATYHLYNSQDHGWDLNAASAYCSTWDANKPYSWRSKYGWTAFCGPVGAHGQSSCGKCLSVTNTGTGAKTTVRIVDQCSNGGLDLDVNVFRQLDTDGKGYERGHITVNYQFVDCGDSFNPLFSVMKSSVIN
modifications: left off: small tags and cut ends
notes: recombinant Hev b 6 (prohevein) expressed in E. coli from pPROEX-HTa with 6-His tag
serum IgE reactivity by Western blotting: all showed reactivity
